This note sets out measurements from patent US10369187B2, “Peptide regulators of JNK family kinases” (Vanderbilt University, priority 2017, dated 2019).

Assay [1] concerns the target T1, MKK7 (Homo sapiens, UniProt O14733).
T1 sequence (O14733 1-419): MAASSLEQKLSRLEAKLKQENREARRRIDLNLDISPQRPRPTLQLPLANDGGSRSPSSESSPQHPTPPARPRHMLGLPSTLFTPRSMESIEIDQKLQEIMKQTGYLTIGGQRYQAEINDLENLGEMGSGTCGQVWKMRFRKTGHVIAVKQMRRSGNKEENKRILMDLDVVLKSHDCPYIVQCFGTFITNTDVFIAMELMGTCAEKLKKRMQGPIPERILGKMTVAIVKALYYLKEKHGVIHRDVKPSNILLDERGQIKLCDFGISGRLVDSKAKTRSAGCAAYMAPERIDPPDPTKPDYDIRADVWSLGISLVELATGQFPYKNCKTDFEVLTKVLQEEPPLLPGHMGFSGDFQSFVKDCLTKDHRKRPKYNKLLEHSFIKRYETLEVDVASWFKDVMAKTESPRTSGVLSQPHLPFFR
Kind of assay: MBP pull-down of purified MKK7. The class given is binding. To be noted: purified GST-MKK7; peptide as MBP-fusion immobilized on amylose. The method, then: (§1) T1A was expressed in E. coli as an MBP-fusion and purified it on an amylose column^23. The ability of purified GST-MKK4 or GST-MKK7 (FIG. 1A) to bind MBP-T1A immobilized on an amylose column was tested in an in vitro pull-down assay, where MBP and MBP-arrestin-3 served as negative and positive controls, respectively (FIG. 1B). MBP-T1A, but not control MBP, effectively retained both kinases (FIG. 1B). […] Next, it was tested whether T1A binds the uppermost kinase in the cascade, ASK1. Because ASK1 is not available in purified form, HA-tagged ASK1 and YFP-tagged T1A (using YFP as a control) were co-expressed in COS7 cells, lysed the cells, and immunoprecipitated YFP constructs with anti-GFP antibody (FIG. 1C).
To make MBP-fusions containing arrestin-2/3 elements, the cDNAs encoding arrestin fragments were subcloned into pMal-p2T (generous gift from Dr. Keiji Tanaka, Tokyo Institute of Medical Science) between Eco RI and Xho I sites in frame with MBP, as described^23. MBP-Arr3 (full-length arrestin-3) was created by subcloning the corresponding cDNA into pMal-p2T between Eco RI and Not I sites^23. All MBP-arrestin-3 fusion proteins contained the same […] (SEQ ID NO:29) linker between MBP and arrestin-3 or its fragments. […] Eluates were analyzed by SDS-PAGE and Western blotting.

The target in assay [2] is T2, ASK1 (Homo sapiens, UniProt Q99683).
T2 construct: expressed in transfected cells; host or cells: COS7
T2 sequence (Q99683 1-1374): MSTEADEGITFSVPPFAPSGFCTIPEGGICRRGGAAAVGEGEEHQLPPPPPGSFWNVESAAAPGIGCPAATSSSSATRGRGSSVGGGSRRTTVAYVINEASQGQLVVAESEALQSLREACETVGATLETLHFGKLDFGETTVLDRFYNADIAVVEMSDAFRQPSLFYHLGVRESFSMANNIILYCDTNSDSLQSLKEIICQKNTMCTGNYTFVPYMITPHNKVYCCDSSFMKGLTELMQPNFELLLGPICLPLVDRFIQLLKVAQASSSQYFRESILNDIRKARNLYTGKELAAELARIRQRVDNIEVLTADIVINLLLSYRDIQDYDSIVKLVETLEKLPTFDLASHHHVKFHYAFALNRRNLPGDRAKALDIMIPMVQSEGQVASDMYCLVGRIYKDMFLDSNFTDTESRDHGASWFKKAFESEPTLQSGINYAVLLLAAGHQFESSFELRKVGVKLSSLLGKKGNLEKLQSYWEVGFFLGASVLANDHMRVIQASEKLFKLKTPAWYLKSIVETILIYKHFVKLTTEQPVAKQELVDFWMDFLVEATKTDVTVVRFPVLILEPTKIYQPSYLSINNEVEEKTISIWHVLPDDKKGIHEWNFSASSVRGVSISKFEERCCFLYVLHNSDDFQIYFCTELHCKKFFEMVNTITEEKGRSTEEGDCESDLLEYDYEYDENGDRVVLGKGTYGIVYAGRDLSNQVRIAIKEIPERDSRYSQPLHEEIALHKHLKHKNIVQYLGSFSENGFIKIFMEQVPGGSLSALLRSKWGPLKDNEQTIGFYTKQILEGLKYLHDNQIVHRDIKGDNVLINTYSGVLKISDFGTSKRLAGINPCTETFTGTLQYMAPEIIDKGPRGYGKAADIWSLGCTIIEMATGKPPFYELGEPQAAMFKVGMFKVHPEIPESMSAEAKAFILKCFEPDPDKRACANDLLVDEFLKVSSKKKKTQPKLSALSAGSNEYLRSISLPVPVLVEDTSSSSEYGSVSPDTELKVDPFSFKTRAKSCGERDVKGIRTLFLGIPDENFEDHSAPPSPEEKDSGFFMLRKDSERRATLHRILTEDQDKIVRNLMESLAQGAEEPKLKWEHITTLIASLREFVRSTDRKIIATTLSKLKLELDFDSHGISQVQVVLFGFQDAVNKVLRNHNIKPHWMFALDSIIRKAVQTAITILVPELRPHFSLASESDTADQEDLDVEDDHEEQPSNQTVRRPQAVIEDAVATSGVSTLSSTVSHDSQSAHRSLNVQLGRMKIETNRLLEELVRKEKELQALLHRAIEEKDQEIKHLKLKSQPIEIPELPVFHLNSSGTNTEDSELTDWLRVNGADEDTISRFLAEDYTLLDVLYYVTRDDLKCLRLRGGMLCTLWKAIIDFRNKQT
Kind of assay: Co-immunoprecipitation of HA-ASK1 with YFP construct from COS7 cells. The class given is binding. The settings on record: HA-ASK1 and YFP-T1A co-expressed in COS7 cells, anti-GFP antibody. The method, then:
as §1

“MGEKPGTRVFKKSSPNCKLTVYLGK (bovine) [T1A, first 25 residues of arrestin-3]”: the “binding of MKK7 in MBP pull-down” value in assay [1] was “binds both MKKs”. In addition, in assay [2], the “binding of ASK1 (co-immunoprecipitation)” value is “binds all upstream kinases of its activation cascade”.

For “MGDK-GTRVFKKASPNGKLTVYLGK (MGDKGTRVFKKASPNGKLTVYLGK; N-terminal MGDK; bovine) [B1A, homologous N-terminal peptide from arrestin-2, negative control]”, in assay [1], the “binding of MKK7 in MBP pull-down” value is on record as “less robust interaction”.
